The Human Domainome abundance scans (Beltran et al. 2025)
± gives the uncertainty stated by the source.

B1: Far upstream element-binding protein 1, residues 98 to 169; numbered along this chain, Q96AE4 (parent)
chain: RSVMTEEYKVPDGMVGFIIGRGGEQISRIQQESGCKIQIAPDSGGLPERSCMLTGTPESVQSAKRLLDQIVE

Variants of: B1
Assay: abundance fitness (aPCA) (normalised: wild type 0, dead -1); higher = more abundant; growth selection in yeast, the domain comes from the species named
Conditions: Homo sapiens
Variant RSVMTEEYKVPDGMVGFIIGRGGEQISRIQQESGCKWQIAPDSGGLPERSCMLTGTPESVQSAKRLLDQIVE has an abundance fitness of -0.933 ± 0.049.
RSVMTEEYKVPDGMVGFIIGRGGEQISRIQQESGCKYQIAPDSGGLPERSCMLTGTPESVQSAKRLLDQIVE gave an abundance fitness of -0.963 ± 0.11.
For RSVMTEEYKVPDGMVGFIIGRGGEQISRIQQESGCKIAIAPDSGGLPERSCMLTGTPESVQSAKRLLDQIVE, the abundance fitness was -0.017 ± 0.029.
In the case of RSVMTEEYKVPDGMVGFIIGRGGEQISRIQQESGCKICIAPDSGGLPERSCMLTGTPESVQSAKRLLDQIVE, the abundance fitness is reported as -0.005 ± 0.037.
Variant RSVMTEEYKVPDGMVGFIIGRGGEQISRIQQESGCKIDIAPDSGGLPERSCMLTGTPESVQSAKRLLDQIVE has an abundance fitness of -0.042 ± 0.043.
Work on RSVMTEEYKVPDGMVGFIIGRGGEQISRIQQESGCKIEIAPDSGGLPERSCMLTGTPESVQSAKRLLDQIVE yielded an abundance fitness of 0.023 ± 0.034.
RSVMTEEYKVPDGMVGFIIGRGGEQISRIQQESGCKIFIAPDSGGLPERSCMLTGTPESVQSAKRLLDQIVE showed an abundance fitness of -0.031 ± 0.057.
RSVMTEEYKVPDGMVGFIIGRGGEQISRIQQESGCKIGIAPDSGGLPERSCMLTGTPESVQSAKRLLDQIVE gave an abundance fitness of -0.09 ± 0.025.
RSVMTEEYKVPDGMVGFIIGRGGEQISRIQQESGCKIHIAPDSGGLPERSCMLTGTPESVQSAKRLLDQIVE showed an abundance fitness of -0.034 ± 0.049.
Work on RSVMTEEYKVPDGMVGFIIGRGGEQISRIQQESGCKIIIAPDSGGLPERSCMLTGTPESVQSAKRLLDQIVE yielded an abundance fitness of 0.001 ± 0.054.
For RSVMTEEYKVPDGMVGFIIGRGGEQISRIQQESGCKIKIAPDSGGLPERSCMLTGTPESVQSAKRLLDQIVE, the abundance fitness was -0.041 ± 0.039.
Work on RSVMTEEYKVPDGMVGFIIGRGGEQISRIQQESGCKILIAPDSGGLPERSCMLTGTPESVQSAKRLLDQIVE yielded an abundance fitness of -0.036 ± 0.031.
For RSVMTEEYKVPDGMVGFIIGRGGEQISRIQQESGCKIMIAPDSGGLPERSCMLTGTPESVQSAKRLLDQIVE, the abundance fitness was -0.038 ± 0.037.
For RSVMTEEYKVPDGMVGFIIGRGGEQISRIQQESGCKIPIAPDSGGLPERSCMLTGTPESVQSAKRLLDQIVE, the abundance fitness was -0.844 ± 0.045.
In the case of RSVMTEEYKVPDGMVGFIIGRGGEQISRIQQESGCKIRIAPDSGGLPERSCMLTGTPESVQSAKRLLDQIVE, the abundance fitness is reported as -0.032 ± 0.024.
With RSVMTEEYKVPDGMVGFIIGRGGEQISRIQQESGCKISIAPDSGGLPERSCMLTGTPESVQSAKRLLDQIVE the abundance fitness was -0.007 ± 0.03.
Variant RSVMTEEYKVPDGMVGFIIGRGGEQISRIQQESGCKITIAPDSGGLPERSCMLTGTPESVQSAKRLLDQIVE has an abundance fitness of -0.027 ± 0.035.
RSVMTEEYKVPDGMVGFIIGRGGEQISRIQQESGCKIWIAPDSGGLPERSCMLTGTPESVQSAKRLLDQIVE showed an abundance fitness of -0.049 ± 0.031.
RSVMTEEYKVPDGMVGFIIGRGGEQISRIQQESGCKIYIAPDSGGLPERSCMLTGTPESVQSAKRLLDQIVE gave an abundance fitness of -0.138 ± 0.052.
RSVMTEEYKVPDGMVGFIIGRGGEQISRIQQESGCKIQAAPDSGGLPERSCMLTGTPESVQSAKRLLDQIVE gave an abundance fitness of -0.252 ± 0.031.
RSVMTEEYKVPDGMVGFIIGRGGEQISRIQQESGCKIQCAPDSGGLPERSCMLTGTPESVQSAKRLLDQIVE showed an abundance fitness of -0.109 ± 0.044.
For RSVMTEEYKVPDGMVGFIIGRGGEQISRIQQESGCKIQDAPDSGGLPERSCMLTGTPESVQSAKRLLDQIVE, the abundance fitness was -0.51 ± 0.055.
Variant RSVMTEEYKVPDGMVGFIIGRGGEQISRIQQESGCKIQEAPDSGGLPERSCMLTGTPESVQSAKRLLDQIVE has an abundance fitness of -0.36 ± 0.036.
With RSVMTEEYKVPDGMVGFIIGRGGEQISRIQQESGCKIQFAPDSGGLPERSCMLTGTPESVQSAKRLLDQIVE the abundance fitness was 0.038 ± 0.05.
Variant RSVMTEEYKVPDGMVGFIIGRGGEQISRIQQESGCKIQHAPDSGGLPERSCMLTGTPESVQSAKRLLDQIVE has an abundance fitness of -0.266 ± 0.06.
For RSVMTEEYKVPDGMVGFIIGRGGEQISRIQQESGCKIQKAPDSGGLPERSCMLTGTPESVQSAKRLLDQIVE, the abundance fitness was -0.445 ± 0.043.
Variant RSVMTEEYKVPDGMVGFIIGRGGEQISRIQQESGCKIQLAPDSGGLPERSCMLTGTPESVQSAKRLLDQIVE has an abundance fitness of -0.081 ± 0.029.
In the case of RSVMTEEYKVPDGMVGFIIGRGGEQISRIQQESGCKIQMAPDSGGLPERSCMLTGTPESVQSAKRLLDQIVE, the abundance fitness is reported as -0.026 ± 0.036.
RSVMTEEYKVPDGMVGFIIGRGGEQISRIQQESGCKIQNAPDSGGLPERSCMLTGTPESVQSAKRLLDQIVE gave an abundance fitness of -0.415 ± 0.061.
In the case of RSVMTEEYKVPDGMVGFIIGRGGEQISRIQQESGCKIQQAPDSGGLPERSCMLTGTPESVQSAKRLLDQIVE, the abundance fitness is reported as -0.35 ± 0.035.
In the case of RSVMTEEYKVPDGMVGFIIGRGGEQISRIQQESGCKIQRAPDSGGLPERSCMLTGTPESVQSAKRLLDQIVE, the abundance fitness is reported as -0.369 ± 0.026.
RSVMTEEYKVPDGMVGFIIGRGGEQISRIQQESGCKIQTAPDSGGLPERSCMLTGTPESVQSAKRLLDQIVE showed an abundance fitness of -0.227 ± 0.035.
Variant RSVMTEEYKVPDGMVGFIIGRGGEQISRIQQESGCKIQVAPDSGGLPERSCMLTGTPESVQSAKRLLDQIVE has an abundance fitness of -0.032 ± 0.029.
In the case of RSVMTEEYKVPDGMVGFIIGRGGEQISRIQQESGCKIQWAPDSGGLPERSCMLTGTPESVQSAKRLLDQIVE, the abundance fitness is reported as -0.109 ± 0.03.
In the case of RSVMTEEYKVPDGMVGFIIGRGGEQISRIQQESGCKIQYAPDSGGLPERSCMLTGTPESVQSAKRLLDQIVE, the abundance fitness is reported as -0.207 ± 0.047.
For RSVMTEEYKVPDGMVGFIIGRGGEQISRIQQESGCKIQICPDSGGLPERSCMLTGTPESVQSAKRLLDQIVE, the abundance fitness was -0.023 ± 0.045.
With RSVMTEEYKVPDGMVGFIIGRGGEQISRIQQESGCKIQIDPDSGGLPERSCMLTGTPESVQSAKRLLDQIVE the abundance fitness was -0.039 ± 0.045.
Variant RSVMTEEYKVPDGMVGFIIGRGGEQISRIQQESGCKIQIFPDSGGLPERSCMLTGTPESVQSAKRLLDQIVE has an abundance fitness of -0.101 ± 0.058.
